Data reported in the nanobody polyreactivity screen of Harvey et al. (2022).

Assay: yeast display, Sf9 membrane polyspecificity reagent, FACS + sequencing; frameworks hold sequencing errors
Summary of the method: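 After 36–48 hours of galactose induction, yeast (Saccharomyces cerevisiae BJ5465) displaying a synthetic nanobody library were stained at 4 °C for 1 hour with 10% biotinylated, detergent-solubilized Sf9 membrane reagent. Streptavidin microbeads enriched the stained cells before FACS sorting into low and high (top ~1%) gates on anti-HA and streptavidin fluorescence. Each clone's polyreactivity label reflects its gate of origin.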

Row | Sequence | polyreactivity (PSR sort gate)
1 | QVQLVDSGGGLVQAGGSLRLTCDASGSTFYVNFMGWYRQAPGKERELDALIDWRGGSTYYADSVKGRFTISRDNAKNTVYLQMNSLKPEDTAVYYCKKDAQFYYKLPYYKERDWGQGTQVTVSS | low polyreactivity
2 | QVQLVDSGGGLVQAGGSLRLTFAASGRTFRWNVMGWYRQAPGKERELVATISRRSGSTNYADSVKGRFTISRDNAKITVYLQMNSLKPEDTAVYYCAVVIVRALVYAGDYWGQGTQVTVSS | low polyreactivity
3 | QVQLVDSGGGLVQAGGSLRVSCAASGRIFSGHAMGWYRQAPGKVRELVAAITSGGDDTYYADSVKGRFTISRDNAKNTVYLQMNSLKPEDTAVYYCAARYLGYTYYYWGQGTQVSVSS | low polyreactivity
4 | QVQLVDSGGGLVQAGGSLSLSCAASGRIFTHYSMGWYRQATGKERELVAGMSQGGGSTYYADSVKGRFTISRDNAKNTVYLQMNSLKPEDTAVYYCAKTYDYVDYDYWGQGTQVTVSS | low polyreactivity
5 | QVQLVDSGGGLVQAGGSLSLSCAASGSTFKHYAMGWYRQAPGKERELVAAISSRGGSTHYADSVKGRFTISRDNAKNTVYLQMNSLKPEDTAVYYCARDTDTLSSRSSDYDYWGQGTQVTVSS | low polyreactivity
6 | QVQLVDSGGGLVQAGVSLRLSCAASGSTFVFYAMGWYRQAPGKERELVAGISWSGGSTYYADSVKGRFTISRDNAKNTVYLQMNSLKPEDTAVYYCAARYTRYLGSGYYYCGQGTQVTVSS | high polyreactivity
7 | QVQLVDSGGGLVQEGGSLRLSCAASGSIFSTYARGWYRQAPGKEWEVVAAITRGGRTTYADSVKGRFTISRDNAKNTVYLQMNSLKPEDTAVYYCNAVGVYYWWYRLYDYWGQGTQVTLSS | high polyreactivity
8 | QVQLVDSGGGVVQAGGSLLLSCPASGLIIKVYAMGWYRQAPGKERELVAAITYSGGSTDYADSVKGRFTISRDNAKNTVFLQMISLKPEDTAVYYCNVEKVGHVNSYGYDYWGQGTQVTVSS | low polyreactivity
9 | QVQLVDSGGGVVQAGGSLRLSCAASGFIFSGYAMGWYRPAPGKERELVAVISRGGGSTSYADSVKGRFTISRDNAKNTVYLQMNSLKPEDTAVYYCAAVYYPLSVDNDYWGQGTQVTVSS | high polyreactivity
10 | QVQLVDSGGRLEQAGGSLRLSCAASGSIFGWNAMGWYRQAPGKERELVAAINWTGGTTYYADSVKGRITISRDNAKYTVYLQMKSLKPADTAVYYCAARLTYHVAGQITRYYYWGQGTQVTVSS | low polyreactivity
11 | QVQLVDSGRGLVQAGGSLRLSCAASGGTFARNAMGWYRQAPGKERELVAAIRGGVSTNYADSVKGRFTISSDNAKNTVYLQMNSLKPEDTAVYYCNASPPTLEGYWGQGTQVTVSS | low polyreactivity
12 | QVQLVDSGRGLVQAGGSLRLSCASSGSTFRDYAMGWYRQAPGKETELVAVITWNGGSTYYADSVKGRFTISRDNAKNTVYLEMNSLKPEDTAVYYCGAVYPRSLSTEYYYWGQGTQVTVSS | high polyreactivity
13 | QVQLVDSRGGLVQAGGSLRLSCAASGRTLYSNAKGLSRQAPGKERDLVAAISGSGDTTYYADSVKGRFTISRDNAKNTVYLTMKSLKPEDTAVYYCAADHDSYGAGYEYCGQGTQVTVSS | low polyreactivity
14 | QVQLVDSVGGLVQAGASLRLSCAASGSIFYYYAMGWYREAPGKERELVAAIRYRGGRTYYADSVKGRFTISRDNAKNTVYLQMNSLKPEDTAVYYCNADVIRRGGSRYSSGRDFDYWGQGTQVTVSS | high polyreactivity
15 | QVQLVDSVGGLVQAGGSLRLSCAASGLTFLGNAMGWYRQATGKEREFVAGIDRSSVSTYADSVKGRFTISRDNAKNTVYLQMNSLKPEDTEVYYCAVVEYGIWVGWVPYATFGMNYWGQGTQVTVSS | high polyreactivity
16 | QVQLVDSVRGLVQAGGSLRLSCAASGSIFNQNAMGWYRQAPGKERELVAVISSGGRTSYADSVKGRFTISRDNAKNTVYLQMNSLKPEDTAVYYCAADYGDRYWDYGYWGQGTQVTVSS | low polyreactivity
17 | QVQLVDTGRGLVQAGGSLRLSCAPSGRTFGYNAMGWYRQAPGKERELVAAINWSGASTYYADSVKWRFTISRDNAKNTVYLQMKSLKPEDTAVYYCAADYSYIYGFDYWGQGTQVTVST | low polyreactivity
18 | QVQLVEAGGGLVHAGGSLRLSCAASGRIFLAYAMGCYRQAPGKEMELVATIRSGGSTTYADSVKGRFTISRDNAKNSVYLQMNSLKTEDTAVYYCARRYQRKKPVFPHSQGAYDYWGQGTQVTVSS | low polyreactivity
19 | QVQLVEAGGGLVQAGGSLRLSCAASGFTISSNAMGWYRQAPGKERELVAAISFNSTSTYYADSVKGRFTISRDNAKNSVYLQMNSLKPEDTAVYYCSADVPRVQSEPEYDYWGQGTQVTVSS | low polyreactivity
20 | QVQLVEAGGGLVQAGGSLRLSCAASGGIFLPYAMGWYRQAPGKERELVAGITSVGSTYADSVKGRFTISRDNAKNTVYLQMNSLKPEDTAVYYCNADIYFVEYDYWGQGTQVTVSS | low polyreactivity
21 | QVQLVEAGGGLVQAGGSLRLSCAASGSIFFIYAMGWYRQAPGKERELVAAITSGDRTYSADSVKGRFTISRDNAKNTVYLQMNSLKPEDTAVYYCNADYYISYWGQGTQVTVSS | low polyreactivity
22 | QVQLVEAGGGLVQAGGSLRLSCAASGSTFSYAMGWYRQAPGKETELVAAITIGGRTSYADSVKGRFTISRDNAKNTVYLQMNSLKPEDTAVYYCAAEGYYPVYYYVYYGFDYWGQGTQVTVSS | low polyreactivity
